Results as given in the DeepSol protein solubility set.

Assay: soluble on expression in E. coli; label from the status in PepcDB or PDB records

Sequence	soluble on expression in E. coli
MKFTEGKVKVVANDVKNLTQALEGYIQKAFFEGKDICASGGLVLKTTNKLAQKLSELKEILPQVKVISDEVKAKAEEIIKKAEETLQKGLEIKKRVKEFEAATNVYKKNPSEENKKRVETALNNLKYPEGAKLTLEDYVKNCNPYKKYLQKRVEQKA	not soluble
MGSDKIHHHHHHMELRHLRHFIVLARLKSFSKAANELHLAQPSLSRSIQKMEERLGASLLARDEKHFALTEYGRLVLAQGELIVSQLEYLESEIKTKQGLEKAKLVIGASPIPSNSIIGPAVGRFIRDNPDISLELKVESWSRLYKLLLKGELDMFIAETNATLLDQRDNVITQCLPQSQAIFCCRPHHPLTRLKTVYLPSLRDYPVGMPSAMPQLLRQRFEDLFEEDRHDFVGLVKYAQFQPIKSAIKECDMVVITPDISVREELASGELVALDVVGVPNIKASFSVVSMKNRRLSHSAEQFVDSLLTHSSAKAVGF	not soluble
SAQNVYGPGVRIGNWNEDVYLEEELMKDFLEKRDKGKLLIQRSRRLKQNLLRPMQLSVTEDGYIHYGDKVMLVNPDDPDTEADVFLRGDLSLCMTPDEIQSHLKDELEVPCGLSAVQAKTPIGRNTFIILSVHRDATGQVLRYGQDFCLGITGGFDNKMLYLSSDHRTLLKSSKRSWLQEVYLTDEVSHVNCWQAAFPDPQLRLEYEGFPVPANAKILINHCHTNRGLAAHRHLFLSTYFGKEAEVVAHTYLDSHRVEKPRNHWMLVTGNPRDASSSMLDLPKPPTEDTRAMEQAMGLDTQ	soluble
MIGQEFRQLLIDKWGYSYDVQLRRTQGKIFLQVMWKYLEQASFPLSESQYQEHLDSITNYLNALGGTIQVQTFITQTKERPRLGKAVSIPLDLGDRSSEWIL	not soluble
MEVMAQIVLAPHLAGRFDDPDHIRRCIQLYSYRIPANYRRLFDFLFNTEQDFPDCDEFSFFVSVRLNIPTKILNFSEEFGKCVSLHILRKLDVIPPFSKRSQLIILKEVESLKKSIRLCDHMEQCVVAAFQQLLEDEEACIQSVHRLMPVITRSLSQSALEDLINPMIELIQCETSVKLLDRRFLMHVSICYGTHTFLDLFLPPIVEACASMNCDRSVVAKESIMWLAKRYGPVICAKFISSNVLRIMASCYEAFEMVGLEQQPKAVFNVVLQGDETCSRIESLLSEIVLTYSVTFITVQFLPFCVDLIEQFHKRSSVQLEPGLVSVFRIVELSIRSMSDHQLMNYLEEFIIQKVCQLLHSITQKIGTENTRIYANQPFKLMFSTFSEIYETDEELRINLRKRPSENTLFEVPLWMVEDVVDKFAKEWGVPFLSSFCDDPAFLIPFVSNSSSSSSPPASIAHSPPSAFTAYSLGGMSSGNRLFSLSASSPVNSVNSLGGLSFCDSGSLSAVWCARVSAAVCGVDNYRFDHLSLCNYTGHQEKIRKLAAISNENSFVSASSDKTVKLWSIKPELDEIGCQWTYQKHTRPVHDITILADNSIASTDGVLHVWDPFRTTLLAQMEWDSKEGSGGNIMRVENVDRHILSAICSLHSTVKLFDSRVGGWTCELKVSPGPGLTRAITVRDKGNKMAVALSNGTLAILDARNGKINALAQTNSTHTVSVNWLSDTRLLVCDADECGIFLETNPRAHIVRKLQDPSIPKQW	not soluble
MGHHHHHHSHMSQHGQSCLSLAGTIDCSVPDILLKSGVIGLAQWLTPVIPALWETEAGGSLEVRSSRPAWPTWRNPISTKNTKISQTWWRMPVVLATWEAEAGESVNLGGRGCSELRRCRCTPAWATRAKLHLRKNKNKNNGVTKT	not soluble
METASITEWTFVQEVPIPEDVANLMVPGEDAVVAFKTFRDSAIFTTKRLIVRDSQGLRGKKVEVYSLPYSSVNMWSTENAGTFDFNAEVELWTRAGKIKIKIGRDLDVRRLDMLLAQCILG	not soluble
MGSDKIHHHHHHMTEQVMNKHQLETGLSILGAPVPGQEIVLNEGALSLLEVLCDQFAAEVPKLLEMRRQKQELIDKGSLPDFLPETRAIRDGDWQIRGIPQDLQDRRVEITGPVDRKMIINALNANVKVFMADFEDSLAPSWIKVIQGQINLRDAVRGEIEYTAPETGKHYTLDDDPAVLIARVRGLHLKEKHVAFNGEAIPGALFDFCLYFYHNYRQLLEKGSGPYFYIPKLESHVEARWWAKVFAYVEERFCLTPGTIKCTCLIETLPAVFEMEEILYELRSNIVALNCGRWDYIFSYIKTLKKHSDRILPDRQAVTMDKPFLSAYSRLLIKTCHKRGALAMGGMAAFIPAKDQAQNEAVLVKVRGDKELEARNGHDGTWVAHPGLADTAMGIFNEYIGEDHVNQLHITRDVDAPILARDLLMPCEGERTESGMRLNIRIALQYIEAWIRGNGCVPIYGLMEDAATAEISRTSIWQWIQHEQKLSNGKLVTKALFKEMLVEELANVKLEVGPDRFTHGSFTQAAVLLEEITTADELVDFLTLPGYEILTQGDNA	not soluble
MAHHHHHHMFHGMNKTNTWAVILSSSRYFFNLRHTTNALAMYHLCRKHGMDDDHILVFLSDSYACDPRKPNPATIYGAPAQAEQPNLYGCNIRVDYASYDVGVRRFLGVLQGRYDENTPPSRRLDTDENSNIIIYAAGHSAEKFFKFQDSEFMSSTDIADTLMMMWEQRRYRKLVFLVDTCRALSLCLEIKAPNVVCLASSEAHLDSYSHHLDPPSGFTVITRWTFEFLEVLKDSKCRPENGEVTLLQKSFYDFNYGPERLSLPQPLSEPAHFDAVNRPNAVREWKMDEFFCEQDRDKIPVELRYDLF	not soluble
MGHHHHHHSHMANPKLLGLELSEAEAIGADSARFEELLLQASKELQQAQTTRPESTQIQPQPGFCIKTNSSEGKVFINICHSPSIPPPADVTEEELLQMLEEDQAGFRIPMSLGEPHAELDAKGQGCTAYDVAVNSDFYRRMQNSDFLRELVITIAREGLEDKYNLQLNPEWRMMKNRPFMGSISQQNIRSEQRPRIQELGDLYTPAPGRAESGPEKPHLNLWLEAPDLLLAEIDLPKLDGALGLSLEIGENRLVMGGPQQLYHLDAYIPLQINSHESKAAFHRKRKQLMVAMPLLLVPS	not soluble
PRVSLFFFSADTDDHAWDKHALVLECAELADSLGLDAIWVPERHFDPFGAPYPSPGLLLAAIAARTSRIALRSGSVVLPLRDPLLVAEEWGVLDSLSRGRMGISLASGWHADDFVLNPEGYERRKDVLEERLADLHTLWNGASITRKGPGGRPVEVRTYPRPERTPEVWLTSSRNPDTWRTAGRLNLHVLTALLEQTIDEITERVGLYHQALTEAGHPTDGRQVTCMLHTHLASDPASVEQRVRGPLIRYLSAHMDLFSKYAAGGGAGIDPDEVTEADRQALLEHGLRRYMGTSGLFGSAESCLPKVERLGAAGITELGCLVDFGLPREQVLESVEELGRLRVALRETAGAPK	soluble
MSLKDLQKYQGIIPAFYACYDDKGDICPERVKALTNYFIDKGVQGLYVNGSSGECIYQSVADRKLVLENVMSVAKGKLTVIAHVACNNTKDSVELAMHAEAIGVDAIAAIPPIYFRLPEYAIADYWNTISQAAPQTDFIIYNIPQLAGVALTSDLYRKMLQNPQVIGVKNSSMPVQDIQNFVAIGGENHIVFNGPDEQFLGGRLMGAAAGIGGTYGVMPELYLTLNQLIVDKDLEKARELQFTINDIITKLCSGHGNMYAVIKAVLEINEQLTIGSVRLPLASVTEEDKPIIKEAAEEGHHHHHH	soluble
SEAKTLGTVTPRKPVLSVSARKIKDNAADWHNLILKWETLNDAGFTTANNIANLKISLLNKDKIELDSSSPASKENEEKVCLEYNEELEKLCEELQATLDGLTKIQVKMEKLSSTTKGICELENYHYGEESKRPPLFHTWPTTHFYEVSHKLLEMYRKELLLKRTVAKELAHTGDPDLTLSYLSMWLHQPYVESDSRLHLESMLLETGHRAL	soluble
MSLEASLLKKNQSIELTIEDLTHDGSGVGKIDGYPFFIPNTLPGEKVTAKIIKLNKNYGFARMENIETVSANRVEPPCAVYSKCGGCSLQHLSYDGQLEFKRNQVEETMKRIGKLNVEVPETLGMENPWRYRNKSQVPVGFVNGKLTAGFYQKRSHAIIDMSTCLIHNEQGDFAVQKTREILAKYGTEPYDEQTGKGDIRHIMTRFAHTTGQLMIVLVTTKERMPFKEEIVRDLVEQLELTSIVQNINPHKTNVIFGDRTKTLWGKDIIEDTIHGIRFAISARSFYQVNPLQTEVLYQQAIDAAELTGEETVIDAYCGIGSISLCLAKKAKHVYGVEIVDQAIQDARANAELNELANTTFETGKAEEVIPSWYKAGIVADVLVVDPPRKGCDEKLLETILAMKPKKVVYVSCNPGTLARDMKILTDGGYVAKKVQPVDMFPMTTHIEAVTVLHLNEGHHHHHH	soluble
MGSDKIHHHHHHMDQGDDGDGQTANADYSIRIAAGIGAFTCDEWNGFAGTTRSDAENGYNPLVSFAFLSALEDSGCAVRRTGWQGHHVRLETAQGRLLGAVPCYLKSHSQGEYVFDHGWSDAFERAGGRYYPKLQCAVPFTPVTGPRLLVNRGEDPDAVKAGLAAGLKMVTDKLGVSSAHVTFAQESDVATLEAAGFLHRTDQQFHFFNEGFSTYDDFLATLASRKRKAMKKERREALADGITIDWLTGKDLTEKAWDDFFAFYMDTGSRKWGRPYLNRQFFSLIGERMADDILLVMARRNGRYVAGAINFIGSDALYGRNWGCIEDHPFLHFEVCYHQAIDFAIERKLKVVEAGAQGEHKLARGYRPVTMHSAHYISHPGLRNAVADYLQRERREVERMGEYLEEHTPFRKDLEE	not soluble
MSLFAAQYIGNKSFNVVEGHAIAPQAGEVRLDVGYVGICGTDMHIYHGVMDQRVSIPQTIGHEISGVVAQIGEGVEGFTVGEKVVVRPLDWCGECPTCEAGLTHICQNLKFMGIDTPGAFQSSWTVKARTLHKLPAGVDLKQGALVEPLSVACHDVRRSRLKAGEKAVILGGGPIGQLVAAVAKSVGAEVLVSEPNDSRREFADELGVKSVNPMDTDLAAYVDQWTGTKGADVVFEVSGVLPAIQSMTQIAGRRGRIVMVAIHSTAPPIDLFQFFWKELELLGARVYEAADFDWAIELIASGQIDLKPFISSVSPLADIGSAFANMDGNPQGMKALVECNAEEGHHHHHH	soluble
PKYTKSVLKKGDKTNFPKKGDVVHCWYTGTLQDGTVFDTNIQTSAKKKKNAKPLSFKVGVGKVIRGWDEALLTMSKGEKARLEIEPEWAYGKKGQPDAKIPPNAKLTFEVELVDID	soluble
MSTQIKVTPEQLEQAAKTVKNTRSSLEYIHQDLYSQTEYIASQWSGASSDRFYQMFNEAKPMMFNILQELDKIAVELERAAVKFREADELYGGNLVDSDIQEGAMCGKIPPKSEESFFNNKDLNAAWTGISTGFVDGAVDAWEGLISLGDKETWLNMRDAIVNYEETIPAALNALSDSFVNNLWHGDMESREHYAAYGIATLGLGLLGDKGLSKAGQVGKGAAITGFTKGKSLVTNSPAYRNALHILNNYEFKAGNHLSYAGVGSIQKYLQKAAPYTYEGPNGPKTIRLRLGELAGDKHPVTGIRYDLDGFPIFKALSEVKLKEADFKKSRPTHDRICSKALYEQIMKDPKLAAKFTEEEIELFKLGEVPENYTWHHHQEAGRMQLVDYETHRKTGHTGGYKIWGKDSDK	not soluble
SLDAEKQLANITMGLPLSPAADSARSARHALSLIATARPPAFITTIAKEVHRHTALAANTQSQQSIHTTTLARAKGEILRVIEILIEKMPTDVVDLLVEVMDIIMYCLEGSLVKKKGLQECFPAICRFYMVSYYERSHRIAVGARHGSVALYDIRTGKCQTIHGHKGPITAVSFAPDGRYLATYSNTDSHISFWQMNTSLLGSIGMLNSAPQLRCIKTYQVPPVQPASPGSHNALKLARLIWTSNRNVILMAHDGKEHRFMV	soluble
MMDPISIINKYYTEGTNQYHILVEHSRDVAALALRIVEIHPELQADRLFVEEAAMLHDIGIFLTDAESIACFGKEPYILHGYMGANILRKEGYPRHALVCERHTGSGLTSEDIAARQIALPPGIYTPQSIEEKIVCYADKFFSKTKLHRQKKLEDVRRSMLSYGADSLRRFDEMHALFKIPLG	soluble
